How the values were obtained:
[1] = molecular target: AcrIF24 (P. aeruginosa prophage); assay: SEC-SAXS
[2] = molecular target: AcrIF24 (P. aeruginosa prophage); assay: cryo-EM structure

stoichiometry N [1]: 2 | stoichiometry N [2]: 2
Substance: AcrIF24 (natural protein)

Reference: paper PMC9691602
